{
  "source": "paper PMC11405398",
  "target": "spore coat protein GerQ (Bacillus amyloiquefaciens)",
  "test": "cryo-EM structure; native filaments extracted from B. amyloiquefaciens biofilm; helical reconstruction with C9 point group symmetry, rise 34.2 Å, twist −18.4°; 3.3 Å; partially unbundled filaments",
  "data": [
    {"substance": "spore coat protein GerQ (natural protein)", "values": [
      {"measurement": "stoichiometry N (subunits per ring)", "result": 9}
    ]}
  ]
}
